1 molecule from publication PMC4058522 (2014) can be followed below.

The target of the assay is mouse Pih1 PIH domain Lys 153 charge reversal mutant (mouse, UniProt Q9CQJ2 1-200, Charge reversal of a conserved residue Lys 153). The experiment in a line: ITC.

Square brackets hold non-standard residues; d marks the D form. Ends that are not written are not given here. pS = N[C@@H](COP(=O)(O)O)C(=O)O

Sequence of mouse Pih1 PIH domain Lys 153 charge reversal mutant (Q9CQJ2 other isoform, or with tags, fused parts or gaps Charge reversal of a conserved residue Lys 153 | mutant): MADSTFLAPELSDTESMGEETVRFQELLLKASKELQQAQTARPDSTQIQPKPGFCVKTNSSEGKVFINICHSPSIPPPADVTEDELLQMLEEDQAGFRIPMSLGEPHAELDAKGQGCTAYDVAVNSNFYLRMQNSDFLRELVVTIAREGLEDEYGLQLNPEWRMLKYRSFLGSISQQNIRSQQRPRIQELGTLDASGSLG

What is called Kd is the constant that tells how readily two partners part at equilibrium. On to QGSD[pS]ELD[pS]DDEF [mouse Tel2 484-496 peptide, bis-phosphorylated pSer 488 and pSer 492 (QGSDpSELDpSDDEF)], for which the Kd stood at 220 nM.
